Experimental data: patent US20190153108A1 (AbbVie / Abbott, published 2019)
Positions count from the first letter of the chain named.

B1: AbK-AAA (antibody, V domains shown)
VH: EVQLQESGPGLVKPSQTLSLTCTVSGYSISRDFAWNWIRQPPGKGLEWMGYISYNGNTRYQPSLKSRITISRDTSKNQFFLKLNSVTAADTATYYCVTASRGFPWWGQGTLVTVSS
VL: DIQMTQSPSSMSVSVGDRVTITCHSSQDITYNVGWLQQKPGKSFKGLIYHGSNLDHGVPSRFSGSGSGTDYTLTISSLQPEDFATYYCVQYDDFPWTFGGGTKLEIKR
modifications: synthon AAA on reduced interchain Cys
B2: AbB-LB (antibody, V domains shown)
VH: B1 VH with R31N, N55K
VL: B1 VL with T30N, Y31S, V33I, S52T, H56D, D92A, D93Q
modifications: synthon LB on reduced interchain Cys
B3: AbA-ZT (antibody, V domains shown)
VH: B1 VH with W105Y
VL: B1 VL with T30N, Y31S, V33I, S52T, H56D, D92A, D93Q
modifications: synthon ZT on reduced interchain Cys
B4: AbK-AAD (antibody, V domains shown)
VH: B1 VH
VL: B1 VL
modifications: synthon AAD on reduced interchain Cys
B5: AbG-LB (antibody, V domains shown)
VH: B1 VH with R31N, P41L, N55K, F103L, W105Y
VL: B1 VL with V33I, S52A, H56D, D93E
modifications: synthon LB on reduced interchain Cys
B6: AbA-WD (antibody, V domains shown)
VH: B1 VH with W105Y
VL: B1 VL with T30N, Y31S, V33I, S52T, H56D, D92A, D93Q
modifications: synthon WD on reduced interchain Cys
B7: AbA-LB (antibody, V domains shown)
VH: B1 VH with W105Y
VL: B1 VL with T30N, Y31S, V33I, S52T, H56D, D92A, D93Q
modifications: synthon LB on reduced interchain Cys
B8: AbK-LB (antibody, V domains shown)
VH: B1 VH
VL: B1 VL
modifications: synthon LB on reduced interchain Cys
B9: AbG-WD (antibody, V domains shown)
VH: B1 VH with R31N, P41L, N55K, F103L, W105Y
VL: B1 VL with V33I, S52A, H56D, D93E
modifications: synthon WD on reduced interchain Cys
B10: AbA-TV (antibody, V domains shown)
VH: B1 VH with W105Y
VL: B1 VL with T30N, Y31S, V33I, S52T, H56D, D92A, D93Q
modifications: synthon TV on reduced interchain Cys
B11: AbK-WD (antibody, V domains shown)
VH: B1 VH
VL: B1 VL
modifications: synthon WD on reduced interchain Cys
B12: AbA-ZZ (antibody, V domains shown)
VH: B1 VH with W105Y
VL: B1 VL with T30N, Y31S, V33I, S52T, H56D, D92A, D93Q
modifications: synthon ZZ on reduced interchain Cys
B13: AbB-WD (antibody, V domains shown)
VH: B1 VH with R31N, N55K
VL: B1 VL with T30N, Y31S, V33I, S52T, H56D, D92A, D93Q
modifications: synthon WD on reduced interchain Cys

target: human Epidermal Growth Factor Receptor (huEGFR) over-expressed in mcl-1-/- mouse embryonic fibroblasts (human, UniProt P00533 25-1210); experiment: cell-based or functional assay

huEGFR^+ mcl-1^-/- MEF EC50 [nM] | Binder
3.4 | B1
31 | B2
104 | B3
0.4 | B4
24 | B5
304 | B6
27 | B7
17 | B8
5.8 | B9
3 | B10
35 | B11
186 | B12
23 | B13
